Results from article PMC4017094, “Mouse SLX4 Is a Tumor Suppressor that Stimulates the Activity of the Nuclease XPF-ERCC1 in DNA Crosslink Repair” (Molecular Cell, 2014).
One block for each binder: values may come before it.

What was measured:
[1] = target: T1, XPF-ERCC1 nuclease (XE), recombinant (UniProt Q9QZD4 1-917; P07903 1-298); test: cell-based or functional assay
T1 sequence (looked up) 1: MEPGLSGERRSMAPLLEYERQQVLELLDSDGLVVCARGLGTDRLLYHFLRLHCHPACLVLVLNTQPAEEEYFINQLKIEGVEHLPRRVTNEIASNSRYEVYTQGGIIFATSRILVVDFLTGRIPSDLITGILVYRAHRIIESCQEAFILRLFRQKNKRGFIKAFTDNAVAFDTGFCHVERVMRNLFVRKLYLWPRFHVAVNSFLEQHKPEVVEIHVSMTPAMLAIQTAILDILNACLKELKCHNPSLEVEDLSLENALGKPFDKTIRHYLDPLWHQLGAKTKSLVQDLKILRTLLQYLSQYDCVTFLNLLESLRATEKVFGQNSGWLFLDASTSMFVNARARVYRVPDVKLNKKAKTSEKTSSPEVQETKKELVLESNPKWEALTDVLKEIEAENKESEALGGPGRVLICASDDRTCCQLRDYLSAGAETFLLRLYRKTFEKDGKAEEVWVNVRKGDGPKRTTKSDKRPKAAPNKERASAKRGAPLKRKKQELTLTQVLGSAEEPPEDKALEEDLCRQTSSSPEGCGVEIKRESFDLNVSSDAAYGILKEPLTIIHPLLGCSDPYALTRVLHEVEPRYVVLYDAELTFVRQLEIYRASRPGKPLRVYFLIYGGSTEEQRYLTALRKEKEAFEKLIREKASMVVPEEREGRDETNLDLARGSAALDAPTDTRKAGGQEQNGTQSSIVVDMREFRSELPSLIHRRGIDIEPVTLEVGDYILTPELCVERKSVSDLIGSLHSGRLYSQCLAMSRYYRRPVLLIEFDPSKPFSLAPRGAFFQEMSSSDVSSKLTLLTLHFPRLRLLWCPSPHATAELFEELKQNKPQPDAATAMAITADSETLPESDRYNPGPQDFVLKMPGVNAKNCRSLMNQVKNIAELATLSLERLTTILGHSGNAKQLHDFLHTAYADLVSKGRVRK
T1 sequence (looked up) 2: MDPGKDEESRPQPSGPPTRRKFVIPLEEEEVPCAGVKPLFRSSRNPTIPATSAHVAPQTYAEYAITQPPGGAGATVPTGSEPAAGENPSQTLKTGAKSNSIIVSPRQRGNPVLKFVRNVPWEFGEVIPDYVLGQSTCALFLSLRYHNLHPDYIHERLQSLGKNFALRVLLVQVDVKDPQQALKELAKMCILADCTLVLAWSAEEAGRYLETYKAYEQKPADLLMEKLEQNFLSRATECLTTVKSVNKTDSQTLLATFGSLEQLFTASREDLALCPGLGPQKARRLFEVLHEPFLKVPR

[2] = target: T1, XPF-ERCC1 nuclease (XE), recombinant; test: SEC-MALS; light-scattering analysis of the purified SXE complex (Figure S1F); conditions: both partners purified
[3] = target: the molecule itself; test: as above

- incision rate on the interstrand crosslink (ICL) fork substrate, SXE against XE (5 nM enzyme) [1]: 110 fold
- nuclease rate on the bubble substrate, SXE against XE (5 nM enzyme) [1]: 3.5 fold
- nuclease rate on the fork substrate Y11, SXE against XE (5 nM enzyme) [1]: 16 fold
- nuclease rate on the long stem-loop substrate, SXE against XE (5 nM enzyme) [1]: 3.7 fold
- stoichiometry N [2]: 1
B1: Recombinant mini-SLX4 (1-758) (domain or fragment, mouse, UniProt Q6P1D7 1-758, looked up)
chain: MVPESAPNGNSQPLPSCFTTTGVPSPSKPRVSELVLQRMKQFKRADPERLRHASEESPQKTALGDDVPRSPPEETVGENEYKLDATDSDAAMALALQQEFRREEASSHHDSLEEKGLFFCQMCQKNLSAMNVTRREQHVNRCLDEAEKAQRPASPRIPDCPICGKPFLTTKSRISHLKQCAVRMEVGPQLLLQAVRLQTAQPEVDGSPQVPSFSNNVGGLKRKGVTTKREPRRRKVNKPEAPSEDLLVAMALSRSEVEHCPVVPPLRLENAFSEKIRLGAEKKSRKKRPPVCPPQLVTQDSETTGRQIEDRVAQLLSEEAELSCTPPLLASKISKEELEPAGWRARLPEGKRNFLWELSALTGAWAEESFYTVGLFPPIVSQCPSKEPQLPLELPKQGEPSPRRPPASQSSLPVSHSPKIRLLSSSQRERQALQDLVDLAVEGLSSSPQPGSRGVPTGLDLVPSSLPLTGFVLPCKKTLKKDDSASLSLGLLVTDFGAMVNNPHLSDVQFQLDSGEVLYAHKFVLYARCPLLIQYVSTESFSSEEDGDLTQRALLSDVSSEAAHAFLNYLYMADTDMPPSLVPDLRSLALRFGVSDLVQLCEQVPAVVDLEGEQPEETSEDCESRAETFLELLRSVWVDNEEEVETLLKPELCEEERERVNEAEMEEIYEFAATQRKLLQWGRAADPDGSTNPHGEDGAVSEPSLAGVQSNRQLENTEHMESSGLEKEEALASWEQEGHSTPLQDQCPDWAGKAEAQD
notes: mouse SLX4, residues 1-758; source: insect cells, purified (in complex with XPF-ERCC1, or alone)

B2: mini-SLX4-XPF-ERCC1 (SXE) complex (complex)
chain 1: B1 chain
chain 2: T1 sequence (looked up) 1
chain 3: T1 sequence (looked up) 2
notes: mouse SLX4, residues 1-758; XPF, wild type; ERCC1; 430 kDa by light scattering; also called WT SXE; source: insect cells, purified; copies: 2 + 2 + 2
- stoichiometry N [3]: 2
